Experimental data taken from article doi:10.1101/723213 (bioRxiv, 2019).
Changes are numbered by the printed parent chain. In names and notes the source's numbering stands.

T1: His-CAL1_(1-160) (Drosophila melanogaster, UniProt Q9VEN2 1-160)
T1 sequence (looked up): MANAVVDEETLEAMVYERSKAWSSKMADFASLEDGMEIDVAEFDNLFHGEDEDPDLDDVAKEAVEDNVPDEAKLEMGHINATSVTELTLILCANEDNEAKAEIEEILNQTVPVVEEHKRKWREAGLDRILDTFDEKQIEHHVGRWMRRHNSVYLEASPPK

T2: CENP-A-GFP-LacI (Drosophila melanogaster, UniProt Q9V6Q2 1-225)
T2 sequence (looked up): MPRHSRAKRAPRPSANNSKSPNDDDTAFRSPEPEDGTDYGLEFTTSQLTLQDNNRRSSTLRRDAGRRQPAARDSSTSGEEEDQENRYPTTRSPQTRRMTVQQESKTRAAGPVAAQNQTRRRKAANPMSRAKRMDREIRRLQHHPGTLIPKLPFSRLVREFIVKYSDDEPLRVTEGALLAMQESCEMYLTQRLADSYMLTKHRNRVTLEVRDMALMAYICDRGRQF

B1: CENP-A_(101-225) (domain or fragment)
chain: QQESKTRAAGPVAAQNQTRRRKAANPMSRAKRMDREIRRLQHHPGTLIPKLPFSRLVREFIVKYSDDEPLRVTEGALLAMQESCEMYLTQRLADSYMLTKHRNRVTLEVRDMALMAYICDRGRQF
B2: His-CAL1_(1-50) (domain or fragment)
chain: MANAVVDEETLEAMVYERSKAWSSKMADFASLEDGMEIDVAEFDNLFHGE
B3: CAL1_(841-979) (untagged) (domain or fragment, Drosophila melanogaster, UniProt Q9VEN2 841-979, looked up)
chain: GGDPDCTVVTSTTGCEPPASERQEIPATIKITKRGILLHSPSAPEGASFTLTEQGLGKIIGERWARKYLKYHIGSRSFDSRHSVYYQPTPQLAAALSAPQDAQNIGNISGSSASDDDIFEQINRYGTVYSILENNSGDK
B4: His-CAL1_(1-160) F43R (domain or fragment)
chain: T1 sequence (looked up) with F43R
B5: CENP-C_(1264-1411) (tag cleaved) (domain or fragment, Drosophila melanogaster, UniProt Q9VHP9 1264-1411, looked up)
chain: GPVVFSTPLRDEQEEASTKLMQWLRGVGDAPPSASMSDENASVSSANELIFCQVDGIDYAFYNTKEKAMLGYMRFKPYQKRSMKQAKVHPLKLLVQFGEFNVETLAVGEEKEVHSVLRVGDMIEIDRGTRYSIQNAIDKVSVLMCIRS
B6: CAL1_(F43R)-V5 (natural protein, Drosophila melanogaster, UniProt Q9VEN2 1-979, looked up)
chain: MANAVVDEETLEAMVYERSKAWSSKMADFASLEDGMEIDVAERDNLFHGEDEDPDLDDVAKEAVEDNVPDEAKLEMGHINATSVTELTLILCANEDNEAKAEIEEILNQTVPVVEEHKRKWREAGLDRILDTFDEKQIEHHVGRWMRRHNSVYLEASPPKYLPPHHNSISDESDESMHSIDTARYIQQSRRRNAHMTNKNMTTIKMYRKHSHKRDELRAKYAYGDEQEHRHHMQAVLLRRRERERQLAYLASTPMQCVYSSGHHMRRKNLRKRRINSWMFDSASSSEEDTSFGGCDCHSCRRHYALSRSVYQSCPYGRGQREYHHRQMASRTMHTMRRQHTFDMEMDLRPRLPENECSCCNSDRLCSNVIHIANSSTEEWVVENRSNHLTQETQEKTRKQKHQPMDARKVSHQPVCSKGHEQKPLSSKATSVSKLVLSKEKYMQMFDSESSDEDNALAKKGLLCCSDKKKGMTFPTPNAAGKITHPTSSAKKAIRKEARPNGLAQIQEEGPTATNSPIESTYLPVAHMKSVSIDGSSGTSATFESPAKKAPKRGIRETSPLNGNELQQLISTIPIADEKASSLMEKVDNCIGRESFDDRNKDFMHMENSSTKTAVEKSTKQKRVSGKKSEIPKSIITNNEILEKNSTETLSEKQVAAKAKKQSVRKTGATGKPSTSRLKKSEKTKTTSSVTSTSKLEQVREEESDVSSEVLAKPKPQCSTTASILKQGGDGASNSEDDLQIALAMSKATYKEEQQKRKKTKREPSNKQPQSPAEKSMTVFNNQSVACNSTALANDTACYRVLPKRRGVKRAAAVSTTEEKTATNSSSSPTSSLEEMGSPTGGDPDCTVVTSTTGCEPPASERQEIPATIKITKRGILLHSPSAPEGASFTLTEQGLGKIIGERWARKYLKYHIGSRSFDSRHSVYYQPTPQLAAALSAPQDAQNIGNISGSSASDDDIFEQINRYGTVYSILENNSGDK

Experiments:
His-CAL1_(1-160) = target: T1, His-CAL1_(1-160); test: crystal structure
Histone H4 = Histone H4 (Drosophila melanogaster, UniProt P84040 2-103); test: crystal structure
[1] = target: T3, CENP-A_(101-225)–H4 heterodimer (Drosophila melanogaster, UniProt Q9V6Q2 101-225; P84040 2-103); test: SEC-MALS
[2] = target: B5; test: AUC
[3] = target: T3, CENP-A_(101-225)–H4 heterodimer; test: pull-down
SEC-MALS = target: the molecule itself; test: SEC-MALS
CENP-A-GFP-LacI = target: T2, CENP-A-GFP-LacI; test: LacO/LacI tethering assay in cells

Q: Does B1 bind (His-CAL1_(1-160))?
A: binds

Q: Does B1 bind (Histone H4)?
A: binds

Q: Which “stoichiometry N” value [1] does the source give for B2 here?
A: 1 CAL1 per CENP-A/H4 heterodimer

Q: With B3 as the binder, how does the “stoichiometry N” value [2] read?
A: 1 CAL1 per CENP-C dimer

Q: Does B4 bind [3]?
A: binds

Q: For B5, which “stoichiometry N” value (SEC-MALS) is on record?
A: 2

Q: For B6, which “fold reduction of the level co-localising with CENP-A, against CAL1 WT” value (CENP-A-GFP-LacI) is on record?
A: 3 fold
